“Also recorded” adds a separate entry of the source. Where a SMILES comes first, the peptide text is derived from it. The star is where a group is joined. Cbz = O=C(OCc1ccccc1)*

The values that follow come from US20100303790A1, “USE OF BILIVERDIN REDUCTASE (BVR) AND BVR PEPTIDE FRAGMENTS TO TREAT CORONARY DISORDERS” (UNIVERSITY OF ROCHESTER, priority 2009, published 2010).

In series [1] the test system is rat neonatal cardiomyocytes. Briefly: BVR, HO-2 and HO-1 protein levels in rat neonatal cardiomyocytes (western blot). Format: cell-based. The conditions noted are these: for HO-2 protein level: MG132 50 μg/ml; for effect on isoproterenol-induced BVR protein expression / effect on isoproterenol-induced HO-2 protein expression: 10 μM isoproterenol, western blot. On the procedure: Neonatal Rat Cardiomyocytes: Primary cultures of neonatal rat cardiomyocytes were prepared as described previously (Ding et al., “Functional Role of Phosphodiesterase 3 in Cardiomyocyte Apoptosis: Implication in Heart Failure,” Circulation 111:2469-2476 (2005) which is hereby incorporated by reference in its entirety). Briefly, fragmented ventricular tissue from 1-2 day old Sprague-Dawley rats was subjected to multiple rounds of enzymatic digestion with collagenase II (Worthington, Lakewood, N.J.). The cells were then collected by low speed centrifugation at 4° C. Non-myocytes were removed by two rounds of pre-plating the cells on culture dishes. The enriched cardiomyocytes were cultured in DMEM with 10% FBS and 10% horse serum. The day after cell adhesion, 10 μM cytosine 1-β-D-arabinofuranoside (Sigma, St. Louis, Mo.) was added to inhibit the growth of contaminating non-myocytes.
Plasmids and Constructs: Adenovirus for expression of an endogenous PKA inhibitor (PKA251 bp) was prepared as described previously (Ding et al., “Functional Role of Phosphodiesterase 3 in Cardiomyocyte Apoptosis: Implication in Heart Failure,” Circulation 111:2469-2476 (2005), which is hereby incorporated by reference in its entirety). Rat BVR and HO-2 siRNA were designed based on the human sequences (Miralem et al., “Small Interference RNA-Mediated Gene Silencing of Human Biliverdin Reductase, but not that of Heme Oxygenase-1, Attenuates Arsenite-Mediated Induction of the Oxygenase and Increases Apoptosis in 293A Kidney Cells,” J Biol Chem 280:17084-17092 (2005), which is hereby incorporated by reference in its entirety). The BVR targeting site is at nucleotides 94-114, and the HO-2 targeting site is at nucleotides 73-93, downstream of the start codon in each case. Oligonucleotides containing the sequence of a 21 nucleotide small interference RNA were synthesized as follows: BVR siRNA, 5′-GATCCCC ([…]) TTCAAGAG ([…]) TTTTTGGAAA (SEQ ID NO:61) and 5′-AGCTTTTCCAAAAA ([…]) TCTCTTGAA ([…]) GGG (SEQ ID NO:62; HO-2 siRNA, 5′-GATCCCC ([…]) TTCAAGAGA ([…]) TTTTTGGAAA (SEQ ID NO:63) and 3′-AGCTTTTCCAAAAA ([…]) TCTCTTGAA ([…]) GGG (SEQ ID NO:64). Complementary oligonucleotides were annealed, then ligated into pSuper-Retro vector (OligoEngine Co. Seattle, Wash.). E. coli clones containing the desired constructs were identified by restriction analysis and verified by DNA sequencing. The retroviral DNA vectors for generating BVR si-rRNA and […] were transfected into the HEK293A packaging cell line, and the supernatant containing the expressed si-rBVR or si-rHO-2 retrovirus was then titrated in NIH3T3 cells. Retrovirus expressing siRNA was used to infect cells at a multiplicity of infection of 4 plaque-forming units/cell. The plasmid pcDNA-hBVR has previously been described (Lerner-Marmarosh et al., “Human Biliverdin Reductase: A Member of the Insulin Receptor Substrate Family with Serine/Threonine/Tyrosine Kinase Activity,” Proc Natl Acad Sci US A 102:7109-7114 (2005), which is hereby incorporated by reference in its entirety); pcDNA-hHO2 was constructed by cloning the HO-2 open reading frame into pcDNA3. […]

Series [2] concerns the target T1, hBVR-derived peptide KKRILHC^281.
T1 chain: KKRILHC

The target in series [3] is T2, hBVR-derived peptide KYCCSRK^296.
T2 chain: KYCCSRK

Series [4] concerns rat neonatal cardiomyocytes. Description: Apoptosis of cardiomyocytes (cleaved caspase-3, TUNEL, DNA electrophoresis). Format: cell-based. The conditions noted are these: for DNA fragmentation by electrophoresis of genomic DNA: ISO treatment coupled with siRNA; for number of cardiac apoptotic cells (TUNEL): siRNA followed by isoproterenol, relative to absence of ISO stimulation; for level of cleaved caspase-3 protein: with 10 μM isoproterenol, 24 hours. As to the method:
Western Blot Analysis: Cell lysates were prepared by homogenization in RIPA buffer (40 mM Tris-HCl, pH 7.5, 1 mM EDTA, 1 mM DTT, 0.1 mM Na3VO4, 10 μg/ml aprotinin, 5 μg/ml pepstatin, 20 μg/ml leupeptin, 1 mM bezamidine followed by centrifugation at 800×g for 10 minutes at 4° C. (Ding et al., “Functional Role of Phosphodiesterase 3 in Cardiomyocyte Apoptosis: Implication in Heart Failure,” Circulation 111:2469-2476 (2005), which is hereby incorporated by reference in its entirety). Supernatant proteins were resolved by SDS-PAGE and transferred to nitrocellulose. Western blots were examined using antibodies against β-actin (Cell Signaling), BVR (Huang et al., “Detection of 10 Variants of Biliverdin Reductase in Rat Liver by Two-Dimensional Gel Electrophoresis,” J Biol Chem 264:7844-7849 (1989), which is hereby incorporated by reference in its entirety), HO-1, HO-2 (Panahian et al., “Site of Injury-Directed Induction of Heme Oxygenase-1 and -2 in Experimental Spinal Cord Injury Differential Functions in Neuronal Defense Mechanisms?” J Neurochem 76:539-554 (2001), which is hereby incorporated by reference in its entirety), and cleaved caspase-3 (Cell Signaling, Beverly Mass.). The secondary antibody was horseradish peroxidase-conjugated goat anti-rabbit IgG (1:2,000, Bio-Rad).
Analysis of Apoptosis: The terminal deoxyribonucleotide transferase-mediated dUTP nick-end labeling (TUNEL) assay was used to detect in situ DNA fragmentation, using the In Situ Cell Death Detection Kit (Roche) as described previously (Ding et al., “Functional Role of Phosphodiesterase 3 in Cardiomyocyte Apoptosis: Implication in Heart Failure,” Circulation 111:2469-2476 (2005), which are hereby incorporated by reference in their entirety). In addition, the cells were stained for cardiomyocyte-specific sarcomeric α-actinin with the antibody EF-53 to distinguish cardiomyocytes from contaminating fibroblasts; and only EF-53 positive cells were counted. Three independent experiments were performed and an average of 1,000 EF-53 positive cells from random fields were analyzed.
DNA Electrophoresis: Total cellular DNA was isolated from untreated and treated cells by lysis in 10 mM Tris-HCl, pH 7.8; 1 mM, EDTA, 10 mM NaCl, 1% (w/v) SDS and 1 mg/ml proteinase K at 60° C. for 2 hours. The lysate was extracted twice each with phenol-choloroform (1:1, v/v) and chloroform, followed by precipitation with ethanol. The precipitate was collected by centrifugation, washed once in 70% ethanol, and resuspended in TE containing 1 mg/ml RNase at 37° C. for 30 min. DNA was resolved by electrophoresis in 2.0% agarose gels containing ethidium bromide.
It was noted that the level of cleaved caspase-3 protein, a marker for apoptosis, was increased by the inhibition of isoproterenol-induced expression of either BVR or HO-2 using siBVR or si-rHO-2, respectively (FIG. 6A). […] That apoptosis was occurring in cardiomyocytes, per se, was determined by triple staining of the cells with anti-α-actinin antibody to detect cardiomyocytes, TUNEL staining for cells undergoing apoptosis, and DAPI to detect nuclei (FIG. 6C). The merged images in FIG. 6C clearly indicate that the cardiomyocytes are undergoing apoptosis.

Take `CC(C)C[C@@H](C=O)NC(=O)[C@H](CC(C)C)NC(=O)[C@H](CC(C)C)NC(=O)OCc1ccccc1` [MG132] (Cbz-Leu-Leu-Leu-aldehyde): the HO-2 protein level result in series [1] (BVR gene expression inhibited by si-BVR) is “increased the HO-2 protein levels”; in series [1] (absence of isoproterenol stimulation), “increased”.

B1: rat biliverdin reductase (BVR), endogenous in perfused rat heart (protein)
chain: AEPKRKFGVVVVGVGRAGSVRLRDLKDPRSAAFLNLIGFVSRRELGSLDEVRQISLEDALRSQEIDVAYICSESSSHEDYIRQFLQAGKHVLVEYPMTLSFAAAQELWELAAQKGRVLHEEHVELLMEEFEFLRREVLGKELLKGSLRFTASPLEEERFGFPAFSGISRLTWLVSLFGELSLISATLEERKEDQYMKMTVQLETQNKGLLSWIEEKGPGLKRNRYVNFQFTSGSLEEVPSVGVNKNIFLKDQDIFVQKLLDQVSAEDLAAEKKRIMHCLGLASDIQKLCHQKK
As to B1, the “BVR activity (rate of conversion of biliverdin to bilirubin at pH 6.7, NADH cofactor) in perfused rat heart” value in series [2] is listed as “peptide KKRILHC^281 blocked the activity of BVR, whether ISO was present or not”; in series [3], “Treatment of the heart with peptide KYCCSRK^296 alone increased BVR activity”.

B2: si-rHO-2: retrovirus-expressed siRNA against rat HO-2 (SEQ ID NO:63, 64) (nucleic acid)
chain 1: GATCCCCGAAAACCATACCAAAATGGCATTCAAGAGATGCCATTTTGGTATGGTTTTCTTTTTGGAAA
chain 2: AGCTTTTCCAAAAAGAAAACCATACCAAAATGGCATCTCTTGAATGCCATTTTGGTATGGTTTTCGGG
modifications: the letters are possibly those of the target site
For B2, in series [1], the “effect on isoproterenol-induced BVR protein expression” value is reported as “no effect” and the “effect on isoproterenol-induced HO-2 protein expression” value is “ablated”. In series [4], the “DNA fragmentation by electrophoresis of genomic DNA” value was “DNA fragmentation could be detected”, the “number of cardiac apoptotic cells (TUNEL)” value is “increase” and the “level of cleaved caspase-3 protein” value is reported as “increased”.

B3: si-rBVR: retrovirus-expressed siRNA against rat BVR (SEQ ID NO:61, 62) (nucleic acid)
chain 1: GATCCCCTCTGCAGCATTCCTGAACCTGTTCAAGAGACAGGTTCAGGAATGCTGCAGATTTTTGGAAA
chain 2: AGCTTTTCCAAAAATCTGCAGCATTCCTGAACCTGTCTCTTGAACAGGTTCAGGAATGCTGCAGAGGG
modifications: the letters are possibly those of the target site
Consider B3, for which, in series [1], the “effect on isoproterenol-induced BVR protein expression” value is listed as “efficiently blocked” and the “effect on isoproterenol-induced HO-2 protein expression” value is “effectively blocked; also recorded: also blocked”. Moreover, in series [4], the “DNA fragmentation by electrophoresis of genomic DNA” value is on record as “DNA fragmentation could be detected”, the “number of cardiac apoptotic cells (TUNEL)” value is listed as “increase” and the “level of cleaved caspase-3 protein” value is “increased”.
